These results are taken from patent US20120270234A1, “DDR2 PROTEIN WITH ACTIVATED KINASE ACTIVITY AND PREPARATION METHOD THEREOF” (KOREA INSTITUTE OF SCIENCE AND TECHNOLOGY, priority 2003, published 2012).

Entries after “also recorded” stand apart in the source; their conditions may differ.

The target of one assay is T1, c-Fyn tyrosine kinase (Homo sapiens, UniProt P06241).
T1 construct: Full length human c-Fyn gene was per amplified from the vector containing full length human c-Fyn purchased from Invitrogen, USA; host or cells: sf9 insect cells co-infected with two recombinant baculoviruses
T1 sequence (P06241 2-482 isoform P06241-3): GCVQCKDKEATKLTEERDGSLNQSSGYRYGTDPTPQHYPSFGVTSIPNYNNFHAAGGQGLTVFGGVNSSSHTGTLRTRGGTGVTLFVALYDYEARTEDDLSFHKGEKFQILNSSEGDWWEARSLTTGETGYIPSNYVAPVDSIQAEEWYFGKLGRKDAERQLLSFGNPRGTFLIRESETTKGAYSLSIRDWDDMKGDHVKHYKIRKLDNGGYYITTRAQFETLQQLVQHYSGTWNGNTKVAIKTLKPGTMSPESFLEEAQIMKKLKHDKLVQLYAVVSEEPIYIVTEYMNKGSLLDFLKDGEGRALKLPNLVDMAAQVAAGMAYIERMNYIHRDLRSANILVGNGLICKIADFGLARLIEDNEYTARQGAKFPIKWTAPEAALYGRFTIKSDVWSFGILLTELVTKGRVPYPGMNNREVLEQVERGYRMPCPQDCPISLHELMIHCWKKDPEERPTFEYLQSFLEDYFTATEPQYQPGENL
Briefly: tyrosine phosphorylation on co-expression with c-Fyn in insect cells, western blotting with phosphorylated tyrosine specific antibody. In kind it is cell-based. The note with it: FIG. 2. The source says:
In order to check the expression of c-Src protein in the case of co-expressing the GST-DDR2 CKD and the c-Src (lane 2), a portion of lysate of the host cells is undergone a SDS-PAGE and then a western blotting using a c-Src protein specific antibody. Likewise in order to check the expression of c-Fyn protein in the case of co-expressing the GST-DDR2 CKD and the c-Fyn (lane 3), a portion of lysate of the host cells is undergone a SDS-PAGE and then a western blotting using a c-Fyn protein specific antibody.
The presence of equal amount of protein at each lane was estimated by coomassie brilliant blue (CBB) staining. The co-expression of c-Src or c-Fyn protein was confirmed by western blotting on aliquot of total cell lysate using human c-Src or c-Fyn specific antibody.
(§1) Phospho-tyrosine specific antibody was purchased from Cell Signaling Inc, USA. Specific antibodies to human c-Src, human c-Fyn, and she were obtained from SantaCruz, USA. Samples were boiled for 2 min in 1× lameli sample buffer, and loaded in 10% SDS-PAGE. Proteins were transferred to Immobilon-P membrane (Millipore) and blacked by 10% skim milk in TBS for an hour. The membrane was immunoblotted with antibodies for 2 hours and subsequently washed with 1×TBS five times. Then it was incubated with HRP conjugated secondary antibodies for an hour and protein bands were detected using chemiluminescence kit (Amersham).

The test system of a further assay is sf9 cells. As to the kind of experiment: tyrosine phosphorylation by H2O2 processing of expressing insect cells, western blotting with phosphorylated tyrosine specific antibody. The conditions noted are these: 200 μM H2O2 for half of an hour; FIG. 2, FIG. 5. The format is cell-based, Spodoptera frugoperda. The protocol:
The results shown in FIG. 5 were obtained by solely expressing the fused proteins, GST-DDR2 CKD, the GST-DDR1b CKD, the GST-CDK4 and the GST-CDK1, respectively, in insect cells; processing with 200 μM of H2O2 for half of an hour; purifying the respective expressed product using glutathione beads; performing the SDS-PAGE; and performing the western blotting test using an phosphorylated tyrosine specific antibody and coomassie staining.
The results shown in FIG. 5 have been obtained by solely expressing GST-DDR2 CKD, GST-DDR1b CKD, GST-CDK4 and GST-CDK1, respectively in sf9 cells; processing each expressed cells with H2O2 of 200 uM for half of an hour or not; and then purifying the GST tagged protein followed by a western blotting using a phosphorylated tyrosine specific antibody. The presence of a similar amount of each purified GST tagged protein was shown by CBB staining.
The recombinant baculoviruses having the GST-DDR2 CKD coding gene were transfected into sf9 insect cells, by setting MOU to 10 and the cells were cultured for 24 to 72 hours, to express the protein. […], at the concentration of 200 μM was added to the cultured cells. The cells were left for half of an hour, and collected. The collected cells were lysed and the GST-DDR2 CKD was purified from the expressed products, using the glutathione agarose bead column chromatography. The purified protein was subjected to an electrophoresis in 10% polyacrylamaid gel.
After completing the electrophoresis, the protein developed in the gel was transferred to nitrocellulose, and then subjected to a western blotting using a phosphorylated tyrosine specific antibody (Cell signaling Inc, USA), to measure the chemiluminescence signal using x-ray film. For the control, the chemical luminescence of the case without H2O2 processing was measured by the method as mentioned above.
On the technique in general: Immunoblotting shows a protein as a band on a membrane.

A further assay deals with T2, c-Src tyrosine kinase (Mus musculus, UniProt P05480, P80A).
T2 construct: Full length human c-Src gene was per amplified from the vector of pUSE human O-Src wild (Upstate Biotechnology); host or cells: sf9 insect cells co-infected with two recombinant baculoviruses
Briefly: tyrosine phosphorylation on co-expression with c-Src in insect cells, western blotting with phosphorylated tyrosine specific antibody. The conditions noted are these: glutathione bead purified, FIG. 2, FIG. 4. The format is cell-based, Spodoptera frugiperda.
Description: The results shown in FIG. 4 were obtained by co-expressing a fused protein GST-DDR2 CKD, a fused protein (GST-DDR1b CKD) of the GST and the human DDR1b cytosolic tyrosine kinase domain, a fused protein (GST-Akt1) of the GST and the full-length mouse Akt1 kinase and a fused protein (GST-CDK4) of the GST and the full-length human CDK4 kinase with the c-Src protein without GST tagging in insect cells, respectively; purifying the respective expressed product using glutathione beads; performing SDS-PAGE; and performing the western blotting test using a phosphorylated tyrosine specific antibody and coomassie staining.
The results shown in FIG. 4 have been obtained by co-expressing the full-length c-Src protein together with the fused proteins, GST-DDR2 CKD, GST-DDR1b CKD, GST-Akt1 and GST-CDK4, respectively; in sf9 cells, then performing a western blotting test on each purified GST tagged protein using a phosphorylated tyrosine specific antibody. The presence of a similar amount of each purified GST tagged protein was shown by CBB staining.
GST tagged kinase defective DDR2 cytosolic domain (GST-kd-DDR2-CKD) with intact three tyrosines in the activation loop or with various phenylalanine mutations described in the text were co-expressed with Src in sf9 cells. GST tagged proteins were purified and the same amount of proteins estimated by CBB staining was used for western blotting using P-tyro antibody.
as §1

The subject of the next assay is shc protein. Briefly: in vitro shc binding assay using HSC T6 cell lysate. Further details: species or system human. An excerpt: One of the characteristic features of tyrosine phosphorylated cytosolic domain of receptor tyrosine kinase is to recruit the signaling proteins such as shc protein. This complex formation between the cytosolic domain of receptor tyrosine kinase protein and signaling proteins such as shc is important for the cellular transmission of the activated receptor tyrosine kinase signal. It has been observed in HSC T6 liver stellate cells and fibroblast cells that shc, one of signaling protein containing PTB domain binds to activated DDR2 cytosolic domain. The present inventors examined whether the invented DDR2 cytosolic tyrosine kinase domain protein with induced tyrosine phosphorylation for example, by the method of co-expression with c-Src in sf 9 cells or with the mutation of tyrosine 740 to phenylalanine 740 can be used for in vitro shc binding assay. In FIG. 15, the purified GST-DDR2 cytosolic domain from sf 9 cells with and without Src coinfection were used for in vitro shc binding assay. Each protein was subject to autophosphorylation reaction at 30° C. for 15 min, and a mock-autophosphylation reaction as well where gamma-S-ATP was used instead of ATP in the reaction buffer before they were used for in vitro shc binding assay using HSC T6 cell lysate.
The purified GST-DDR2 CKD proteins without or with tyrosine phosphorylation by Src were subject to in vitro shc binding assay after autophosphorylation reaction or a mock-autophosphorylation reaction as described in materials and methods. The bound proteins on the glutathione bead were eluted by boiling in 1× lameli buffer. The presence of shc in the eluate was measured by western blotting using shc antibody and the accumulation of tyrosine phosphorylation at GST-DDR2 CKD proteins resulted from autophosphorylation was shown by western blotting using P-tyro antibody. The presence of an equal amount of GST-DDR2 CKD proteins in each eluate was confirmed by CBB staining. ‘Bead only’ means that no GST-DDR2 CKD protein was applied on glutathione bead as a control.
The same type of experiment was done as FIG. 15 using purified GST-DDR2 CKD phosphorylated by src and its mutant proteins of Y740F and Y736/740/741F.
As a source of shc protein, total lysate of HSC T6 cells was used. For the preparation of the lysate, 2×10^7 HSC T6 cells were harvested and lysed by sonication in 5 ml of lysis buffer consisting of 20 mM Tris-HCl (pH8.0), 0.1M NaCl, 5 mM DTT, 10 mM NaF, […], 0.02% IGE-PAL (Sigma) and a proteinase inhibitor cocktail pellet (Roche). The supernatant was obtained by centrifugation in 15,000 rpm for 10 min at 4° C. and used for the following shc binding assay. Various GST-DDR2 KD proteins bound to glutathione bead were obtained as described above. […]

B1: GST-DDR2 CKD: fusion protein of glutathione S transferase and human DDR2 cytosolic tyrosine kinase domain, solely expressed in insect cells (protein)
chain: MTVSLSLPSDSSMFNNNRSSSPSEQGSNSTYDRIFPLRPDYQEPSRLIRKLPEFAPGEEESGCSGVVKPVQPSGPEGVPHYAEADIVNLQGVTGGNTYSVPAVTMDLLSGKDVAVEEFPRKLLTFKEKLGEGQFGEVHLCEVEGMEKFKDKDFALDVSANQPVLVAVKMLRADANKNARNDFLKEIKIMSRLKDPNIIHLLSVCITDDPLCMITEYMENGDLNQFLSRHEPPNSSSSDVRTVSYTNLKFMATQIASGMKYLSSLNFVHRDLATRNCLVGKNYTIKIADFGMSRNLYSGDYYRIQGRAVLPIRWMSWESILLGKFTTASDVWAFGVTLWETFTFCQEQPYSQLSDEQVIENTGEFFRDQGRQTYLPQPAICPDSVYKLMLSCWRRDTKNRPSFQEIHLLLLQQGDE
modifications: left off: a dimerising Fc or GST
notes: fusion protein of glutathione S transferase and human DDR2 cytosolic tyrosine kinase domain, solely expressed in insect cells
For B1, the “tyrosine phosphorylation induced by co-expression with c-Fyn” value with c-Fyn tyrosine kinase was “remarkably induced”. Further, in the assay on sf9 cells, the “tyrosine phosphorylation induced by H2O2 processing” value is “remarkably induced; also recorded: strongly induced”. For the same molecule, in the assay with c-Src tyrosine kinase, the “tyrosine phosphorylation induced by co-expression with c-Src” value is on record as “remarkably induced; also recorded: strongly induced”. Besides, the “shc binding after in vitro autophosphorylation reaction” value in the assay on shc protein (autophosphorylation at 30° C. for 15 min, FIG. 15, FIG. 16) is listed as “failure to show an improved shc binding”. Also, the “shc binding before in vitro autophosphorylation” value with shc protein (mock-autophosphorylation with gamma-S-ATP, FIG. 15) is “did not attract shc protein binding significantly”.
